Test results as given in publication PMC5880107, “The Sequence-specific Peptide-binding Activity of the Protein Sulfide Isomerase AGR2 Directs Its Stable Binding to the Oncogenic Receptor EpCAM*^([image sbox.jpg])” (Molecular & Cellular Proteomics : MCP, 2018).
No end group written: not given here.

B1: His-AGR2 WT (mature AGR2, amino acids 21-175, N-terminal 6xHis tag; plasmid pmAGR2) (natural protein, human)
chain: RDTTVKPGAKKDTKDSRPKLPQTLSRGWGDQLIWTQTYEEALYKSKTSSKPLMIIHHLDECPHSQALKKVFAENKEIQKLAEQFVLLNLVYETTDKHLSPDGQYVPRIMFVDPSLTVRADITGRYSNRLYAYEPADTALLLDNMKKALKLLKTEL
notes: human AGR2, mature form without the ER leader, residues 21-175; also called wt-AGR2; wild-type AGR2; source: E. coli BL21-AI, purified (Ni-NTA agarose; gel filtration buffer exchange for HDX)

Assays:
[1] = target: T1, 16mer AGR2-interacting peptide SGSG-HLPTTIYYGPPG; test: HDX-MS; His-AGR2 WT 1 μM incubated 30 min with peptide 10 μM (1% DMSO), 10-fold dilution into deuterated buffer (20 mM Tris-HCl pD 7.6, 150 mM NaCl, 10 mM MgCl2), room temperature, 30 s to 3 h, pepsin; conditions: both partners purified
T1 construct: peptide A4 with an N-terminal SGSG stretch, as used for hydrogen-deuterium exchange; also called peptide A4 (in the HDX experiment); consensus site peptide A4; source: synthetic peptide (Chiron Mimotopes), stock 5 mg/ml in DMSO
T1 peptide: SGSGHLPTTIYYGPPG

[2] = target: T2, His-EpEX-CO, extracellular domain of EpCAM (amino acids 24-265), N-terminal 6xHis tag (human); test: ELISA; His-EpCAM (EpEX, wt or Y251A) immobilised on polystyrene microtitre plate in 0.1 M NaHCO3 pH 8.6; AGR2 wt or mutants titrated in the mobile phase (0-1 μg), 1 h room temperature; without or with 1 mM DTT at the binding or the blocking step; detected with AGR2 antibody K47, RLU; conditions: both partners purified
T2 construct: human EpCAM extracellular domain (EpEX), amino acids 24-265 of NM_002354; For HDX the protein was eluted with 1 mM DTT in the final buffer; also called wt-EpCAM; His-EpCAM; source: E. coli BL21-DE3, solubilised with 7 M urea, purified (Ni-NTA agarose); not shown: His6 followed by a TEV protease site, N-terminal, kept
T2 chain: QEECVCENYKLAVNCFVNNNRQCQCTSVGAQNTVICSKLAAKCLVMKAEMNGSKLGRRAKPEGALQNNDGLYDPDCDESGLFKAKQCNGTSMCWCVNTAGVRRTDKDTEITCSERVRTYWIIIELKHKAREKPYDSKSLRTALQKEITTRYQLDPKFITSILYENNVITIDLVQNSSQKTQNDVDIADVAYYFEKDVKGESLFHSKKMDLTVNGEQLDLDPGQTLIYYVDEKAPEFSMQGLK

[3] = target: T3, biotinylated Peptide A4 (AGR2-binding peptide aptamer, HLPTTIYYGPPG) (also: biotinylated, end not given here); test: ELISA; biotinylated peptide A4 (5 μg/well) captured on streptavidin-coated microtitre plate; wt or mutant AGR2 titrated in 3% BSA in PBS-T, 1 h room temperature; detected with AGR2 antibody K47, RLU; conditions: both partners purified
T3 construct: also called TTIYY-containing peptide; source: synthetic peptide (Chiron Mimotopes)
T3 peptide: HLPTTIYYGPPG

[4] = target: free consensus site containing peptides; test: fluorescence polarisation; data not shown; AGR2 binding to free consensus site containing peptides in solution
[5] = target: B1; test: ELISA; competition: biotinylated peptide A4 on the streptavidin-coated solid phase; fixed 1 μg AGR2 added with 100 ng of the indicated non-biotinylated synthetic peptide; AGR2 binding in RLU; conditions: both partners purified

B1: binds [1]; binds [2]; binds [3]. The Kd [4] was 15 to 45 µM.

B2: His-AGR2 D132A (plasmid pmAGR2D132A) (natural protein, human)
chain: RDTTVKPGAKKDTKDSRPKLPQTLSRGWGDQLIWTQTYEEALYKSKTSSKPLMIIHHLDECPHSQALKKVFAENKEIQKLAEQFVLLNLVYETTDKHLSPDGQYVPRIMFVAPSLTVRADITGRYSNRLYAYEPADTALLLDNMKKALKLLKTEL
notes: human AGR2 residues 21-175; source: E. coli BL21-AI, purified (Ni-NTA agarose); not shown: His6 (leader as in m1), N-terminal, kept
B2: binds [2]; binds [3].

B3: His-AGR2 S134A (plasmid pmAGR2S134A) (natural protein, human)
chain: RDTTVKPGAKKDTKDSRPKLPQTLSRGWGDQLIWTQTYEEALYKSKTSSKPLMIIHHLDECPHSQALKKVFAENKEIQKLAEQFVLLNLVYETTDKHLSPDGQYVPRIMFVDPALTVRADITGRYSNRLYAYEPADTALLLDNMKKALKLLKTEL
notes: Ser at 69 as in m1; also called mutant AGR2^S134A; source: E. coli BL21-AI, purified (Ni-NTA agarose; gel filtration buffer exchange for HDX)
B3: binds [2]; binds [3].

B4: His-AGR2 P133A (plasmid pmAGR2P133A) (natural protein, human)
chain: RDTTVKPGAKKDTKDSRPKLPQTLSRGWGDQLIWTQTYEEALYKSKTSSKPLMIIHHLDECPHSQALKKVFAENKEIQKLAEQFVLLNLVYETTDKHLSPDGQYVPRIMFVDASLTVRADITGRYSNRLYAYEPADTALLLDNMKKALKLLKTEL
notes: as for B2
B4: binds [2]; binds [3].

B5: wt-peptide PTTIYY (non-biotinylated hexapeptide) (peptide)
peptide: PTTIYY
notes: also called PTTIYY hexapeptide; source: synthetic peptide
B5: binds [5].

B6: PTTIYY hexapeptide with the Y-A mutation at position 6 (peptide)
peptide: PTTIYA
notes: also called PTTIYA; source: synthetic peptide (mutational scan library)
B6: binds [5].

B7: PTTIYY hexapeptide with Isoleucine at position 4 changed to Leucine (peptide)
peptide: PTTLYY
notes: also called PTTLYY; source: synthetic peptide (mutational scan library)
B7: binds [5].

B8: PTTIYY hexapeptide with Tyrosine at position 5 changed to Tryptophan (peptide)
peptide: PTTIWY
notes: also called PTTIWY; source: synthetic peptide (mutational scan library)
B8: binds [5].

B9: PTTIYY hexapeptide with Tyrosine at position 6 changed to Phenylalanine (peptide)
peptide: PTTIYF
notes: also called PTTIYF; source: synthetic peptide (mutational scan library)
B9: binds [5].

B10: PTTIYY hexapeptide with Tyrosine at position 5 changed to Phenylalanine (peptide)
peptide: PTTIFY
notes: also called PTTIFY; source: synthetic peptide (mutational scan library)
B10: binds [5].

B11: PTTIYY hexapeptide with Tyrosine at position 6 changed to Tryptophan (peptide)
peptide: PTTIYW
notes: also called PTTIYW; source: synthetic peptide (mutational scan library)
B11: binds [5].
